Substitutions are numbered along the chain they refer to. Where two headings read alike, the source gives them in different places.
B1: 7C12-C (antibody, human IgG1, V domains shown)
VH: EFQLQQSGPELEKPGASVRISCKTSGYSFTGYNMNWVKQSNGESLEWIGNIDPYYGATRYNQKFKGKATLTVDKSSSTAYMQLKSLTSEDSAVYYCARSYYGNAFDYWGQGTTLTVSS
VL: DIVMTQSPSSLTVTAGEKVTMSCKSSQSLLNSGNQKNYLTWYQQKPGQPPKLLIYWASTRESGVPDRFTGSGSGTDFTLTISSVQAEDLAVYYCQNDYSFPFTFGSGTKLEIK
notes: also called chimeric 7C12
B2: 7C12 (antibody, V domains shown)
VH: B1 VH
VL: B1 VL
notes: mouse hybridoma antibody; also called hybridoma antibody 7C12
B3: 26G6 (antibody, V domains shown)
VH: B1 VH with R19K, E43Q, N50H, G56V, A57T, R59T, K65R, Y100F
VL: B1 VL with L30F
notes: mouse hybridoma antibody; also called hybridoma antibody 26G6
B4: 26G6-C (antibody, human IgG1, V domains shown)
VH: B1 VH with R19K, E43Q, N50H, G56V, A57T, R59T, K65R, Y100F
VL: B1 VL with L30F
notes: also called chimeric 26G6
B5: 12E9 (antibody, V domains shown)
VH: B1 VH with A57G
VL: B1 VL with S28N, S32N, T78I, S106A, I112L
notes: mouse hybridoma antibody; also called hybridoma antibody 12E9
B6: 11F12 (antibody, V domains shown)
VH: B1 VH with N50Y, A57G
VL: B1 VL with F100Y
notes: mouse hybridoma antibody; also called hybridoma antibody 11F12
B7: 11F12-C (antibody, human IgG1, V domains shown)
VH: B1 VH with N50Y, A57G
VL: B1 VL with F100Y
notes: also called chimeric 11F12
B8: 12E9-C (antibody, human IgG1, V domains shown)
VH: B1 VH with A57G
VL: B1 VL with S28N, S32N, T78I, S106A, I112L
notes: also called chimeric 12E9

Key:
human CLDN18.2 [1] = target: T1, human CLDN18.2 (human); assay: FACS, NUGC4 cells
T1 construct: also called hCLDN18.2; Claudin-18 splice variant 2

[2] = target: T2, human CLDN18.2-mRFP1, wild-type (human); assay: FACS, transfected HEK293, 10 µg/ml antibody;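 further: antibody binding read by flow cytometry with a FITC-labelled anti-human IgG secondary, gated on RFP-positive cells, each mutant signal expressed against wild-type CLDN18.2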
T2 construct: human CLDN18.2 (amino acid 1-261) fused to mRFP1 (amino acid 1-225), transiently expressed in HEK293 cells; also called wild-type human CLDN18.2-mRFP
Procedure: (§1) The transfected HEK293-CLDN18.2 or HEK293-CLDN18.1 cell were resuspended in PBS with 2% BSA at density of 10\hat{ }5/well, 100 μl/well. […] Next, cells were washed 3 times by FACS washing buffer and incubated with 100 μl/well goat anti-hIgG (H+L)-FITC (1:200 dilution) at 4° C. for another 30 min. Finally, cells were washed 3 times by FACS washing buffer and analyzed by Flow Cytometry. To analyze binding to CLDN18.2 transfected cells, the RFP positive cells were used for control gating.

human CLDN18.2-mRFP Q29M = human CLDN18.2-mRFP Q29M (human); assay: FACS, transfected HEK293, 10 µg/ml antibody;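 further: antibody binding read by flow cytometry with a FITC-labelled anti-human IgG secondary, gated on RFP-positive cells, each mutant signal expressed against wild-type CLDN18.2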
Procedure: as §1

human CLDN18.2-mRFP E56Q = human CLDN18.2-mRFP E56Q (human); assay: FACS, transfected HEK293, 10 µg/ml antibody;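 further: antibody binding read by flow cytometry with a FITC-labelled anti-human IgG secondary, gated on RFP-positive cells, each mutant signal expressed against wild-type CLDN18.2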
Procedure: as §1

human CLDN18.2-mRFP Q47E = human CLDN18.2-mRFP Q47E (human); assay: FACS, transfected HEK293, 10 µg/ml antibody;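 further: antibody binding read by flow cytometry with a FITC-labelled anti-human IgG secondary, gated on RFP-positive cells, each mutant signal expressed against wild-type CLDN18.2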
Procedure: as §1

human CLDN18.2-mRFP G65P = human CLDN18.2-mRFP G65P (human); assay: FACS, transfected HEK293, 10 µg/ml antibody
Procedure: as §1

human CLDN18.2-mRFP N37D = human CLDN18.2-mRFP N37D (human); assay: FACS, transfected HEK293, 10 µg/ml antibody
Procedure: as §1

human CLDN18.2-mRFP L69I = human CLDN18.2-mRFP L69I (human); assay: FACS, transfected HEK293, 10 µg/ml antibody
Procedure: as §1

human CLDN18.2-mRFP A42S = human CLDN18.2-mRFP A42S (human); assay: FACS, transfected HEK293, 10 µg/ml antibody
Procedure: as §1

human CLDN18.2-mRFP N45Q = human CLDN18.2-mRFP N45Q (human); assay: FACS, transfected HEK293, 10 µg/ml antibody
Procedure: as §1

human CLDN18.2 [3] = target: T1, human CLDN18.2; assay: FACS, HEK293-CLDN18.2 cells
human CLDN18.1 [4] = target: T3, human CLDN18.1 (human, UniProt P56856 1-261); assay: FACS, HEK293-CLDN18.1 cells
T3 construct: on HEK293-CLDN18.1 cells; also called Claudin-18 splice variant 1; NP_057453.1

human CLDN18.2 [5] = target: T1, human CLDN18.2; assay: flow cytometry on NUGC4 cells, goat anti-mIgG-FITC
Procedure: (§2) Log-phase HEK293-CLDN18.2 and NUGC4 cells were re-suspended in PBS. After 3× cell wash by using FACS washing buffer (PBS+2% FBS), 100 μl/well diluted hybridoma Abs with a range from 400 nM to 0.002 nM were added into each well for incubation at 4° C. for 30 min. Again, cells were washed 3 times by using FACS washing buffer and then incubated with 100 μl/well goat anti-mIgG-FITC (1:400 dilution) at 4° C. for another 30 min. After a final 3× wash using FACS washing buffer, cells were analyzed by flow Cytometry.

human CLDN18.2 [6] = target: T1, human CLDN18.2; assay: FACS, HEK293-CLDN18.2 cells; remark: listed apart in the source
Procedure: as §2

human CLDN18.2 [7] = target: T1, human CLDN18.2; assay: flow cytometry on HEK293-CLDN18.2 cells, goat anti-mIgG-FITC; unit taken from the concentration axis
Procedure: as §2

human CLDN18.1 [8] = target: T3, human CLDN18.1; assay: FACS, hybridoma supernatant, HEK293-CLDN18.1 cells
Procedure: Log-phase CLDN18.1 expressing HEK293-CLDN18.1 cells were resuspended in PBS at a density of 10\hat{ }5/100 μl per well. After 3× cell wash by using FACS washing buffer (PBS+2% FBS), 100 μl/well hybridoma supernatant was added into each well for incubation at 4° C. for 30 min. Again, cells were washed 3 times by using FACS washing buffer and then incubated with 100 μl/well goat anti-mIgG-FITC (1:400 dilution) at 4° C. for another 30 min. After a final 3× wash using FACS washing buffer, cells were analyzed by flow Cytometry.

human CLDN18.2 [9] = target: T1, human CLDN18.2; assay: flow cytometry on NUGC4 cells, goat anti-mIgG-FITC; remark: listed apart in the source
Procedure: as §2

Sequence of human CLDN18.2-mRFP N45Q (human) (chain, as listed by the source N45Q N45Q limits assumed): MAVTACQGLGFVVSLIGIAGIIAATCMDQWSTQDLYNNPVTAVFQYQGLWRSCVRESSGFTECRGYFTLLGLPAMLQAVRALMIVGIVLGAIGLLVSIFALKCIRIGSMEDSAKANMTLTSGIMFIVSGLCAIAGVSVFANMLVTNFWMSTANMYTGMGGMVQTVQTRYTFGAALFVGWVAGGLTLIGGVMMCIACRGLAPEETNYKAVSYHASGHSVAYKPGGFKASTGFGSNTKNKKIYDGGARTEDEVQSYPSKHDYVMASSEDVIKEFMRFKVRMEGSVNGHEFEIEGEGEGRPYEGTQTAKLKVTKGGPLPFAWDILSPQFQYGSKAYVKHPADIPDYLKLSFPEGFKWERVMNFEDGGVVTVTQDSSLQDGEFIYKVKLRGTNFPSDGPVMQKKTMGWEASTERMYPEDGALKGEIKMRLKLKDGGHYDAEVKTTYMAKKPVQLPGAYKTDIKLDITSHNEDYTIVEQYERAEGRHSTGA
Sequence of human CLDN18.2-mRFP G65P (human) (chain, as listed by the source G65P G65P limits assumed): as the sequence (chain, as listed by the source N45Q N45Q limits assumed) above, with Q45N, G65P counted along it
Sequence of human CLDN18.2-mRFP Q29M (human) (chain, as listed by the source Q29M Q29M limits assumed): as the sequence (chain, as listed by the source N45Q N45Q limits assumed) above, with Q29M, Q45N counted along it
Sequence of human CLDN18.2-mRFP Q47E (human) (chain, as listed by the source Q47E Q47E limits assumed): as the sequence (chain, as listed by the source N45Q N45Q limits assumed) above, with Q45N, Q47E counted along it
Sequence of human CLDN18.2-mRFP N37D (human) (chain, as listed by the source N37D N37D limits assumed): as the sequence (chain, as listed by the source N45Q N45Q limits assumed) above, with N37D, Q45N counted along it
T3 sequence (P56856 whole entry, canonical isoform): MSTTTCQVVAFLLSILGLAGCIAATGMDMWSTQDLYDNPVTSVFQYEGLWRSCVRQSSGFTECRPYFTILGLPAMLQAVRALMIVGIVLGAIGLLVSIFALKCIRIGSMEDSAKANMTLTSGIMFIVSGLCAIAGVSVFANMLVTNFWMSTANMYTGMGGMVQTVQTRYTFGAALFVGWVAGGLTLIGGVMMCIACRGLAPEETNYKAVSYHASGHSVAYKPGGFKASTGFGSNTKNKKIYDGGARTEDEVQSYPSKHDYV
Sequence of human CLDN18.2-mRFP A42S (human) (chain, as listed by the source A42S A42S limits assumed): as the sequence (chain, as listed by the source N45Q N45Q limits assumed) above, with A42S, Q45N counted along it
Sequence of human CLDN18.2-mRFP L69I (human) (chain, as listed by the source L69I L69I limits assumed): as the sequence (chain, as listed by the source N45Q N45Q limits assumed) above, with Q45N, L69I counted along it
Sequence of human CLDN18.2-mRFP E56Q (human) (chain, as listed by the source E56Q E56Q limits assumed): as the sequence (chain, as listed by the source N45Q N45Q limits assumed) above, with Q45N, E56Q counted along it

EC50 (human CLDN18.2 [1]) [µg/mL] | binding percentage vs wild-type CLDN18.2 [2] [%] | binding percentage vs wild-type CLDN18.2 (human CLDN18.2-mRFP Q29M) [%] | binding percentage vs wild-type CLDN18.2 (human CLDN18.2-mRFP E56Q) [%] | binding percentage vs wild-type CLDN18.2 (human CLDN18.2-mRFP Q47E) [%] | binding percentage vs wild-type CLDN18.2 (human CLDN18.2-mRFP G65P) [%] | binding percentage vs wild-type CLDN18.2 (human CLDN18.2-mRFP N37D) [%] | binding percentage vs wild-type CLDN18.2 (human CLDN18.2-mRFP L69I) [%] | binding percentage vs wild-type CLDN18.2 (human CLDN18.2-mRFP A42S) [%] | binding percentage vs wild-type CLDN18.2 (human CLDN18.2-mRFP N45Q) [%] | EC50 (human CLDN18.2 [3]) [µg/mL] | binding result (human CLDN18.1 [4]) | EC50 (read off the curve) (human CLDN18.2 [5]) [µg/mL] | EC50 (human CLDN18.2 [6]) [µg/mL] | EC50 (human CLDN18.2 [7]) [µg/mL] | binding result (human CLDN18.1 [8]) | EC50 (read off the curve) (human CLDN18.2 [9]) [µg/mL] | Binder
13 | 100 | 83.5 | 0.48 | 74.7 | 79.4 | 80.2 | 90.4 | 38.7 | 52.1 | 0.63 | no binding |  |  |  |  |  | B1
 |  |  |  |  |  |  |  |  |  |  |  | ~0.5 | 1.08 | 0.417 | no binding |  | B2
 |  |  |  |  |  |  |  |  |  |  |  |  | 0.76 |  | no binding | ~2 | B3
67.1 | 100 | 107 | 0.34 | 116 | 119 | 118 | 79.7 | 82.2 | 88.7 | 1.1 | no binding |  |  |  |  |  | B4
 |  |  |  |  |  |  |  |  |  |  |  |  | 0.52 |  | no binding | ~2 | B5
 |  |  |  |  |  |  |  |  |  |  |  | ~1 | 0.82 | 0.605 | no binding |  | B6
10 | 100 | 108 | 0.27 | 86.1 | 92.7 | 102 | 74.3 | 56.9 | 57.4 | 0.61 | no binding |  |  |  |  |  | B7
9.37 | 100 | 106 | 0.35 | 89.1 | 96.7 | 103 | 58.1 | 55.1 | 50.8 | 0.65 | no binding |  |  |  |  |  | B8

From patent publication US20220306765A1 (SUZHOU TRANSCENTA THERAPEUTICS, published 2022)
